These results are taken from article PMC7388177 (Cell reports, 2020).

Where a chain is given by its changes, count along the chain named. Names and notes keep the numbering of the source.

Data set [1] deals with T1, human ATG9A, purified in LMNG (mVenus-His tag cleaved) (human), Q7Z3C6.
T1 chain: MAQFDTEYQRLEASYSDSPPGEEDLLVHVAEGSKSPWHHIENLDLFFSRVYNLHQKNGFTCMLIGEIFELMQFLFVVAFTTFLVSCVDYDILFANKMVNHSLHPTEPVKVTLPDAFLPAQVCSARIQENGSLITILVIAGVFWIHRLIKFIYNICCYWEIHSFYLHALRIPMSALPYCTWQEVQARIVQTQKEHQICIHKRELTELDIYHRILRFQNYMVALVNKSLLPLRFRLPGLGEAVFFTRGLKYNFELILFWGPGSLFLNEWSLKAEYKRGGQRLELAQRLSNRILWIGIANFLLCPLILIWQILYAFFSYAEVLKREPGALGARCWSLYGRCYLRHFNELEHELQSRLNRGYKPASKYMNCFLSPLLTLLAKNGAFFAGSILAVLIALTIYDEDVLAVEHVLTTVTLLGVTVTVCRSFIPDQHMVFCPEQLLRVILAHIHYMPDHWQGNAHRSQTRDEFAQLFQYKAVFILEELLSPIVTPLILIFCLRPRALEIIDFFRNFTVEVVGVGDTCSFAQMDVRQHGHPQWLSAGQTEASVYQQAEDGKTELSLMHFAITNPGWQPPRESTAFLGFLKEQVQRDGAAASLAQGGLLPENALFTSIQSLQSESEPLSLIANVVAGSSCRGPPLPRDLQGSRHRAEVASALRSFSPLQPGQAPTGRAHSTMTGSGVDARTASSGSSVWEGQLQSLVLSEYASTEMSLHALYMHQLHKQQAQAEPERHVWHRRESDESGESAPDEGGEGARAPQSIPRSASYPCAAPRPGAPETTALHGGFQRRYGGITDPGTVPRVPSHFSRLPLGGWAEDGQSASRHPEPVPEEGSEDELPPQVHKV
The data set can be described thus: negative-stain EM. The settings on record: remark: other sources report otherwise.

The data set “cross-linking” concerns the molecule itself. The data set can be described thus: cross-linking.
Data set [2] has as its target T2, ATG9A-mVenus fusion protein in membranes (human), Q7Z3C6.
T2 chain: T1 chain
The data set can be described thus: cross-linking. The settings on record: remark: other sources report otherwise.

In data set [3] the target is T3, endogenous ATG9A of HeLa cells (human (endogenous in HeLa)), Q7Z3C6.
T3 chain: T1 chain
The data set can be described thus: cross-linking. As to conditions: remark: other sources report otherwise.

B1: human ATG9A, purified in LMNG (mVenus-His tag cleaved), Q7Z3C6 1-839 (natural protein)
chain: T1 chain
Consider B1, for which the stoichiometry N (in general, the number of molecules, sites or subunits per partner or assembly) in data set [1] was 3.

B2: ATG9A-mVenus (N57C + P371C) (natural protein, human, UniProt Q7Z3C6 1-839, looked up)
chain: T1 chain with N57C, P371C
For B2, the “stoichiometry N” value in “cross-linking” came to 3.

B3: ATG9A-mVenus fusion protein in membranes, Q7Z3C6 1-839 (natural protein)
chain: T1 chain
The molecule B3 yielded a stoichiometry N in data set [2] of 3.

B4: ATG9A-mVenus (F68C + N379C) (natural protein, human, UniProt Q7Z3C6 1-839, looked up)
chain: T1 chain with F68C, N379C
B4: in the data set “cross-linking”, the “stoichiometry N” value came out at 3.

B5: endogenous ATG9A of HeLa cells, Q7Z3C6 1-839 (natural protein)
chain: T1 chain
In data set [3], B5 had a stoichiometry N of 3.
